Experimental data: the Human Domainome abundance scans (Beltran et al. 2025)
± gives the uncertainty stated by the source.

B1: Friend leukemia integration 1 transcription factor, residues 116 to 197; numbered along this chain, Q01543 (parent)
chain: NMTTNERRVIVPADPTLWTQEHVRQWLEWAIKEYSLMEIDTSFFQNMDGKELCKMNKEDFLRATTLYNTEVLLSHLSYLRES

Variants of: B1
Assay: abundance fitness (aPCA) (normalised: wild type 0, dead -1); higher = more abundant; growth selection in yeast, the domain comes from the species named
Details: Homo sapiens

Variant | abundance fitness
NMTTNERRVIVPADPTLWTQEHVRQWLEWAIKEYSLMEIDTSFFQNMDGKDLCKMNKEDFLRATTLYNTEVLLSHLSYLRES | -0.332 ± 0.28
NMTTNERRVIVPADPTLWTQEHVRQWLEWAIKEYSLMEIDTSFFQNMDGKCLCKMNKEDFLRATTLYNTEVLLSHLSYLRES | -0.219 ± 0.18
NMTTNERRVIVPADPTLWTQEHVRQWLEWAIKEYSLMEIDTSFFQNMDGFELCKMNKEDFLRATTLYNTEVLLSHLSYLRES | -0.064 ± 0.053
NMTTNERRVIVPADPTLWTQEHVRQWLEWAIKEYSLMEIDTSFFQNMDGTELCKMNKEDFLRATTLYNTEVLLSHLSYLRES | 0.212 ± 0.079
NMTTNERRVIVPADPTLWTQEHVRQWLEWAIKEYSLMEIDTSFFQNMDGGELCKMNKEDFLRATTLYNTEVLLSHLSYLRES | -0.059 ± 0.086
NMTTNERRVIVPADPTLWTQEHVRQWLEWAIKEYSLMEIDTSFFQNMDGYELCKMNKEDFLRATTLYNTEVLLSHLSYLRES | 0.249 ± 0.23
NMTTNERRVIVPADPTLWTQEHVRQWLEWAIKEYSLMEIDTSFFQNMDGIELCKMNKEDFLRATTLYNTEVLLSHLSYLRES | -0.113 ± 0.18
NMTTNERRVIVPADPTLWTQEHVRQWLEWAIKEYSLMEIDTSFFQNMDGHELCKMNKEDFLRATTLYNTEVLLSHLSYLRES | 0.031 ± 0.067
NMTTNERRVIVPADPTLWTQEHVRQWLEWAIKEYSLMEIDTSFFQNMDGWELCKMNKEDFLRATTLYNTEVLLSHLSYLRES | -0.239 ± 0.078
NMTTNERRVIVPADPTLWTQEHVRQWLEWAIKEYSLMEIDTSFFQNMDGPELCKMNKEDFLRATTLYNTEVLLSHLSYLRES | 0.013 ± 0.096
NMTTNERRVIVPADPTLWTQEHVRQWLEWAIKEYSLMEIDTSFFQNMDGMELCKMNKEDFLRATTLYNTEVLLSHLSYLRES | -0.087 ± 0.12
NMTTNERRVIVPADPTLWTQEHVRQWLEWAIKEYSLMEIDTSFFQNMDGDELCKMNKEDFLRATTLYNTEVLLSHLSYLRES | -0.093 ± 0.14
NMTTNERRVIVPADPTLWTQEHVRQWLEWAIKEYSLMEIDTSFFQNMDGLELCKMNKEDFLRATTLYNTEVLLSHLSYLRES | -0.12 ± 0.072
NMTTNERRVIVPADPTLWTQEHVRQWLEWAIKEYSLMEIDTSFFQNMDGCELCKMNKEDFLRATTLYNTEVLLSHLSYLRES | -0.281 ± 0.23
NMTTNERRVIVPADPTLWTQEHVRQWLEWAIKEYSLMEIDTSFFQNMDGQELCKMNKEDFLRATTLYNTEVLLSHLSYLRES | 0.013 ± 0.1
NMTTNERRVIVPADPTLWTQEHVRQWLEWAIKEYSLMEIDTSFFQNMDGNELCKMNKEDFLRATTLYNTEVLLSHLSYLRES | 0.068 ± 0.15
NMTTNERRVIVPADPTLWTQEHVRQWLEWAIKEYSLMEIDTSFFQNMDGVELCKMNKEDFLRATTLYNTEVLLSHLSYLRES | -0.159 ± 0.1
NMTTNERRVIVPADPTLWTQEHVRQWLEWAIKEYSLMEIDTSFFQNMDGSELCKMNKEDFLRATTLYNTEVLLSHLSYLRES | -0.032 ± 0.077
NMTTNERRVIVPADPTLWTQEHVRQWLEWAIKEYSLMEIDTSFFQNMDGEELCKMNKEDFLRATTLYNTEVLLSHLSYLRES | 0.058 ± 0.1
NMTTNERRVIVPADPTLWTQEHVRQWLEWAIKEYSLMEIDTSFFQNMAGKELCKMNKEDFLRATTLYNTEVLLSHLSYLRES | -0.118 ± 0.084
NMTTNERRVIVPADPTLWTQEHVRQWLEWAIKEYSLMEIDTSFFQNMCGKELCKMNKEDFLRATTLYNTEVLLSHLSYLRES | -0.388 ± 0.17
NMTTNERRVIVPADPTLWTQEHVRQWLEWAIKEYSLMEIDTSFFQNMVGKELCKMNKEDFLRATTLYNTEVLLSHLSYLRES | 0.031 ± 0.08
NMTTNERRVIVPADPTLWTQEHVRQWLEWAIKEYSLMEIDTSFFQNMSGKELCKMNKEDFLRATTLYNTEVLLSHLSYLRES | -0.013 ± 0.074

Variant | abundance fitness
NMTTNERRVIVPADPTLWTQEHVRQWLEWAIKEYSLMEIDTSFFQNMYGKELCKMNKEDFLRATTLYNTEVLLSHLSYLRES | -0.358 ± 0.23
NMTTNERRVIVPADPTLWTQEHVRQWLEWAIKEYSLMEIDTSFFQNMIGKELCKMNKEDFLRATTLYNTEVLLSHLSYLRES | -0.391 ± 0.27
NMTTNERRVIVPADPTLWTQEHVRQWLEWAIKEYSLMEIDTSFFQNMNGKELCKMNKEDFLRATTLYNTEVLLSHLSYLRES | -0.201 ± 0.25
NMTTNERRVIVPADPTLWTQEHVRQWLEWAIKEYSLMEIDTSFFQNMHGKELCKMNKEDFLRATTLYNTEVLLSHLSYLRES | -0.366 ± 0.23
NMTTNERRVIVPADPTLWTQEHVRQWLEWAIKEYSLMEIDTSFFQNMPGKELCKMNKEDFLRATTLYNTEVLLSHLSYLRES | -0.295 ± 0.094
NMTTNERRVIVPADPTLWTQEHVRQWLEWAIKEYSLMEIDTSFFQNMQGKELCKMNKEDFLRATTLYNTEVLLSHLSYLRES | -0.205 ± 0.1
NMTTNERRVIVPADPTLWTQEHVRQWLEWAIKEYSLMEIDTSFFQNMRGKELCKMNKEDFLRATTLYNTEVLLSHLSYLRES | -0.305 ± 0.082
NMTTNERRVIVPADPTLWTQEHVRQWLEWAIKEYSLMEIDTSFFQNMMGKELCKMNKEDFLRATTLYNTEVLLSHLSYLRES | -0.464 ± 0.12
NMTTNERRVIVPADPTLWTQEHVRQWLEWAIKEYSLMEIDTSFFQNMWGKELCKMNKEDFLRATTLYNTEVLLSHLSYLRES | -0.82 ± 0.21
NMTTNERRVIVPADPTLWTQEHVRQWLEWAIKEYSLMEIDTSFFQNMGGKELCKMNKEDFLRATTLYNTEVLLSHLSYLRES | -0.114 ± 0.094
NMTTNERRVIVPADPTLWTQEHVRQWLEWAIKEYSLMEIDTSFFQNMEGKELCKMNKEDFLRATTLYNTEVLLSHLSYLRES | -0.222 ± 0.11
NMTTNERRVIVPADPTLWTQEHVRQWLEWAIKEYSLMEIDTSFFQNMTGKELCKMNKEDFLRATTLYNTEVLLSHLSYLRES | -0.04 ± 0.11
NMTTNERRVIVPADPTLWTQEHVRQWLEWAIKEYSLMEIDTSFFQNMKGKELCKMNKEDFLRATTLYNTEVLLSHLSYLRES | -0.227 ± 0.12
NMTTNERRVIVPADPTLWTQEHVRQWLEWAIKEYSLMEIDTSFFQNMDAKELCKMNKEDFLRATTLYNTEVLLSHLSYLRES | -1.01 ± 0.15
NMTTNERRVIVPADPTLWTQEHVRQWLEWAIKEYSLMEIDTSFFQNMDMKELCKMNKEDFLRATTLYNTEVLLSHLSYLRES | -0.965 ± 0.38
NMTTNERRVIVPADPTLWTQEHVRQWLEWAIKEYSLMEIDTSFFQNMDSKELCKMNKEDFLRATTLYNTEVLLSHLSYLRES | -0.943 ± 0.16
NMTTNERRVIVPADPTLWTQEHVRQWLEWAIKEYSLMEIDTSFFQNMDWKELCKMNKEDFLRATTLYNTEVLLSHLSYLRES | -0.777 ± 0.25
NMTTNERRVIVPADPTLWTQEHVRQWLEWAIKEYSLMEIDTSFFQNMDQKELCKMNKEDFLRATTLYNTEVLLSHLSYLRES | -0.977 ± 0.49
NMTTNERRVIVPADPTLWTQEHVRQWLEWAIKEYSLMEIDTSFFQNMDIKELCKMNKEDFLRATTLYNTEVLLSHLSYLRES | -0.506 ± 0.28
NMTTNERRVIVPADPTLWTQEHVRQWLEWAIKEYSLMEIDTSFFQNMDTKELCKMNKEDFLRATTLYNTEVLLSHLSYLRES | -0.919 ± 0.27
NMTTNERRVIVPADPTLWTQEHVRQWLEWAIKEYSLMEIDTSFFQNMDLKELCKMNKEDFLRATTLYNTEVLLSHLSYLRES | -0.579 ± 0.093
NMTTNERRVIVPADPTLWTQEHVRQWLEWAIKEYSLMEIDTSFFQNMDRKELCKMNKEDFLRATTLYNTEVLLSHLSYLRES | -0.889 ± 0.13
NMTTNERRVIVPADPTLWTQEHVRQWLEWAIKEYSLMEIDTSFFQNMDVKELCKMNKEDFLRATTLYNTEVLLSHLSYLRES | -0.755 ± 0.14

Variant | abundance fitness
NMTTNERRVIVPADPTLWTQEHVRQWLEWAIKEYSLMEIDTSFFQNMDKKELCKMNKEDFLRATTLYNTEVLLSHLSYLRES | -0.994 ± 0.42
NMTTNERRVIVPADPTLWTQEHVRQWLEWAIKEYSLMEIDTSFFQTMDGKELCKMNKEDFLRATTLYNTEVLLSHLSYLRES | 0.071 ± 0.099
NMTTNERRVIVPADPTLWTQEHVRQWLEWAIKEYSLMEIDTSFFQVMDGKELCKMNKEDFLRATTLYNTEVLLSHLSYLRES | -0.34 ± 0.23
NMTTNERRVIVPADPTLWTQEHVRQWLEWAIKEYSLMEIDTSFFQSMDGKELCKMNKEDFLRATTLYNTEVLLSHLSYLRES | -0.087 ± 0.097
NMTTNERRVIVPADPTLWTQEHVRQWLEWAIKEYSLMEIDTSFFQYMDGKELCKMNKEDFLRATTLYNTEVLLSHLSYLRES | -0.09 ± 0.12
NMTTNERRVIVPADPTLWTQEHVRQWLEWAIKEYSLMEIDTSFFQWMDGKELCKMNKEDFLRATTLYNTEVLLSHLSYLRES | -0.114 ± 0.092
NMTTNERRVIVPADPTLWTQEHVRQWLEWAIKEYSLMEIDTSFFQNEDGKELCKMNKEDFLRATTLYNTEVLLSHLSYLRES | -1.08 ± 0.28
NMTTNERRVIVPADPTLWTQEHVRQWLEWAIKEYSLMEIDTSFFQNRDGKELCKMNKEDFLRATTLYNTEVLLSHLSYLRES | -0.239 ± 0.048
NMTTNERRVIVPADPTLWTQEHVRQWLEWAIKEYSLMEIDTSFFQNIDGKELCKMNKEDFLRATTLYNTEVLLSHLSYLRES | 0.077 ± 0.15
NMTTNERRVIVPADPTLWTQEHVRQWLEWAIKEYSLMEIDTSFFQNGDGKELCKMNKEDFLRATTLYNTEVLLSHLSYLRES | -0.848 ± 0.19
NMTTNERRVIVPADPTLWTQEHVRQWLEWAIKEYSLMEIDTSFFQNTDGKELCKMNKEDFLRATTLYNTEVLLSHLSYLRES | -0.344 ± 0.061
NMTTNERRVIVPADPTLWTQEHVRQWLEWAIKEYSLMEIDTSFFQNHDGKELCKMNKEDFLRATTLYNTEVLLSHLSYLRES | -0.248 ± 0.23
NMTTNERRVIVPADPTLWTQEHVRQWLEWAIKEYSLMEIDTSFFQNFDGKELCKMNKEDFLRATTLYNTEVLLSHLSYLRES | -0.293 ± 0.19
NMTTNERRVIVPADPTLWTQEHVRQWLEWAIKEYSLMEIDTSFFQNVDGKELCKMNKEDFLRATTLYNTEVLLSHLSYLRES | -0.093 ± 0.072
NMTTNERRVIVPADPTLWTQEHVRQWLEWAIKEYSLMEIDTSFFQNKDGKELCKMNKEDFLRATTLYNTEVLLSHLSYLRES | -0.161 ± 0.12
NMTTNERRVIVPADPTLWTQEHVRQWLEWAIKEYSLMEIDTSFFQNADGKELCKMNKEDFLRATTLYNTEVLLSHLSYLRES | -0.162 ± 0.068
NMTTNERRVIVPADPTLWTQEHVRQWLEWAIKEYSLMEIDTSFFQNNDGKELCKMNKEDFLRATTLYNTEVLLSHLSYLRES | -0.285 ± 0.31
NMTTNERRVIVPADPTLWTQEHVRQWLEWAIKEYSLMEIDTSFFQNWDGKELCKMNKEDFLRATTLYNTEVLLSHLSYLRES | -0.417 ± 0.1
NMTTNERRVIVPADPTLWTQEHVRQWLEWAIKEYSLMEIDTSFFQNPDGKELCKMNKEDFLRATTLYNTEVLLSHLSYLRES | -0.706 ± 0.19
NMTTNERRVIVPADPTLWTQEHVRQWLEWAIKEYSLMEIDTSFFQNLDGKELCKMNKEDFLRATTLYNTEVLLSHLSYLRES | -0.004 ± 0.063
NMTTNERRVIVPADPTLWTQEHVRQWLEWAIKEYSLMEIDTSFFQNYDGKELCKMNKEDFLRATTLYNTEVLLSHLSYLRES | 0.092 ± 0.17
